Measured values as given in patent US6759384 (AVENTIS PHARMACEUTICALS, dated 2004).
Starred links: 1 amine or outer side, 2 acyl side, 3 side chain; linkers in the order of their positions; H or OH if unused. Positions of bridges follow the written chain, without caps; N, C: chain ends. Non-standard residues stand in square brackets, D forms with d. No end group written: not given here. *: point of attachment. Cys(Me) = S-methylcysteine (source: C(Me)), CSC[C@H](N[*:1])C(=O)[*:2]; Tyr(Me) = O-methyltyrosine, COc1ccc(C[C@H](N[*:1])C(=O)[*:2])cc1; Phe(4-NO2) = N[C@@H](Cc1ccc([N+](=O)[O-])cc1)C(=O)O; Phe(4-CONH2) = NC(=O)c1ccc(C[C@H](N)C(=O)O)cc1; Phe(4-CN) = N#Cc1ccc(C[C@H](N)C(=O)O)cc1; Phe(4-NH2) = Nc1ccc(C[C@H](N)C(=O)O)cc1; Phe(4-F) = N[C@@H](Cc1ccc(F)cc1)C(=O)O; dPhe(4-F) = N[C@H](Cc1ccc(F)cc1)C(=O)O; 2Nal = N[C@@H](Cc1ccc2ccccc2c1)C(=O)O; NMeY = CN[C@@H](Cc1ccc(O)cc1)C(=O)O; dNMeY = CN[C@H](Cc1ccc(O)cc1)C(=O)O; Chg = N[C@H](C(=O)O)C1CCCCC1; Nphe = O=C(O)CNCc1ccccc1; Pth = not defined here; pal = not defined here; Tfa = O=C(C(F)(F)F)*; βAla = NCCC(=O)O; tBu = CC(C)(C)*

B1: y-I-R-L-A-NH2 (peptide)
peptide: [dY]IRLA-NH2
modifications: N-terminus assumed
SMILES: CC[C@H](C)[C@H](NC(=O)[C@H](N)Cc1ccc(O)cc1)C(=O)N[C@@H](CCCNC(=N)N)C(=O)N[C@@H](CC(C)C)C(=O)N[C@@H](C)C(N)=O
B2: Ac-f(pF)-I-R-L-P-NH2 (peptide)
peptide: Ac-[dPhe(4-F)]IRLP-NH2
SMILES: CC[C@H](C)[C@H](NC(=O)[C@@H](Cc1ccc(F)cc1)NC(C)=O)C(=O)N[C@@H](CCCNC(=N)N)C(=O)N[C@@H](CC(C)C)C(=O)N1CCC[C@H]1C(N)=O
B3: f-I-R-F-P-NH2 (peptide)
peptide: [dF]IRFP-NH2
modifications: N-terminus assumed
SMILES: CC[C@H](C)[C@H](NC(=O)[C@H](N)Cc1ccccc1)C(=O)N[C@@H](CCCNC(=N)N)C(=O)N[C@@H](Cc1ccccc1)C(=O)N1CCC[C@H]1C(N)=O
B4: f(pF)-I-R-L-P-NH2 (peptide)
peptide: [dPhe(4-F)]IRLP-NH2
modifications: N-terminus assumed
SMILES: CC[C@H](C)[C@H](NC(=O)[C@H](N)Cc1ccc(F)cc1)C(=O)N[C@@H](CCCNC(=N)N)C(=O)N[C@@H](CC(C)C)C(=O)N1CCC[C@H]1C(N)=O
B5: Y-I-R-L-a-NH2 (peptide)
peptide: YIRL[dA]-NH2
modifications: N-terminus assumed
SMILES: CC[C@H](C)[C@H](NC(=O)[C@@H](N)Cc1ccc(O)cc1)C(=O)N[C@@H](CCCNC(=N)N)C(=O)N[C@@H](CC(C)C)C(=O)N[C@H](C)C(N)=O
B6: (Me)y-I-R-L-A-NH2 (peptide)
peptide: [dNMeY]IRLA-NH2
modifications: N-terminus assumed
SMILES: CC[C@H](C)[C@H](NC(=O)[C@@H](Cc1ccc(O)cc1)NC)C(=O)N[C@@H](CCCNC(=N)N)C(=O)N[C@@H](CC(C)C)C(=O)N[C@@H](C)C(N)=O
B7: f-I-R-I-P-NH2 (peptide)
peptide: [dF]IRIP-NH2
modifications: N-terminus assumed
SMILES: CC[C@H](C)[C@H](NC(=O)[C@H](N)Cc1ccccc1)C(=O)N[C@@H](CCCNC(=N)N)C(=O)N[C@H](C(=O)N1CCC[C@H]1C(N)=O)[C@@H](C)CC
B8: Ac-F(pNH2)-Chg-R-(Bzl)G-G-OH (peptide)
peptide: Ac-[Phe(4-NH2)][Chg]R[Nphe]G-OH
SMILES: CC(=O)N[C@@H](Cc1ccc(N)cc1)C(=O)N[C@H](C(=O)N[C@@H](CCCNC(=N)N)C(=O)N(CC(=O)NCC(=O)O)Cc1ccccc1)C1CCCCC1
B9: Ac-βAla-Y-I-R-L-G-NH2 (peptide)
peptide: Ac-[βAla]YIRLG-NH2
SMILES: CC[C@H](C)[C@H](NC(=O)[C@H](Cc1ccc(O)cc1)NC(=O)CCNC(C)=O)C(=O)N[C@@H](CCCNC(=N)N)C(=O)N[C@@H](CC(C)C)C(=O)NCC(N)=O
B10: Ac-F(pNH2)-I-R-L-P-NH2 (peptide)
peptide: Ac-[Phe(4-NH2)]IRLP-NH2
SMILES: CC[C@H](C)[C@H](NC(=O)[C@H](Cc1ccc(N)cc1)NC(C)=O)C(=O)N[C@@H](CCCNC(=N)N)C(=O)N[C@@H](CC(C)C)C(=O)N1CCC[C@H]1C(N)=O
B11: F(pNO2)-I-R-L-A-NH2 (peptide)
peptide: [Phe(4-NO2)]IRLA-NH2
modifications: N-terminus assumed
SMILES: CC[C@H](C)[C@H](NC(=O)[C@@H](N)Cc1ccc([N+](=O)[O-])cc1)C(=O)N[C@@H](CCCNC(=N)N)C(=O)N[C@@H](CC(C)C)C(=O)N[C@@H](C)C(N)=O
B12: Nal(2)-I-R-C(Me)-P-NH2 (peptide)
peptide: [2Nal]IR[Cys(Me)]P-NH2
modifications: N-terminus assumed
SMILES: CC[C@H](C)[C@H](NC(=O)[C@@H](N)Cc1ccc2ccccc2c1)C(=O)N[C@@H](CCCNC(=N)N)C(=O)N[C@@H](CSC)C(=O)N1CCC[C@H]1C(N)=O
B13: Tfa-(Me)Y-I-R-L-A-NH2 (peptide)
peptide: Tfa-[NMeY]IRLA-NH2
SMILES: CC[C@H](C)[C@H](NC(=O)[C@H](Cc1ccc(O)cc1)N(C)C(=O)C(F)(F)F)C(=O)N[C@@H](CCCNC(=N)N)C(=O)N[C@@H](CC(C)C)C(=O)N[C@@H](C)C(N)=O
B14: pal-C(SBut)-R-L-P-NH2 (peptide)
peptide: [pal]C(tBu)RLP-NH2
modifications: reading uncertain; also: pyridylalanine ring position not given here, printed as pal-C(SBut)-R—L—P—NH2
B15: pal-I-R-C(SBut)-P-NH2 (peptide)
peptide: [pal]IRC(tBu)P-NH2
modifications: reading uncertain; also: pyridylalanine ring position not given here, printed as pal-I-R-C(SBut)-P-NH2
B16: Tyr(Me)-I-R-L-A-NH2 (peptide)
peptide: [Tyr(Me)]IRLA-NH2
modifications: N-terminus assumed
SMILES: CC[C@H](C)[C@H](NC(=O)[C@@H](N)Cc1ccc(OC)cc1)C(=O)N[C@@H](CCCNC(=N)N)C(=O)N[C@@H](CC(C)C)C(=O)N[C@@H](C)C(N)=O
B17: Ac-F(pF)-I-R-L-P-NH2 (peptide)
peptide: Ac-[Phe(4-F)]IRLP-NH2
SMILES: CC[C@H](C)[C@H](NC(=O)[C@H](Cc1ccc(F)cc1)NC(C)=O)C(=O)N[C@@H](CCCNC(=N)N)C(=O)N[C@@H](CC(C)C)C(=O)N1CCC[C@H]1C(N)=O
B18: Ac-E-Y-I-R-L-K-NH2** (peptide)
peptide: Ac-EYIRLK-NH2
modifications: lactam 1-6
SMILES: CC[C@H](C)[C@@H]1NC(=O)[C@H](Cc2ccc(O)cc2)NC(=O)[C@@H](NC(C)=O)CCC(=O)NCCCC[C@@H](C(N)=O)NC(=O)[C@H](CC(C)C)NC(=O)[C@H](CCCNC(=N)N)NC1=O
notes: underlining that marks the cyclized portion is lost in the text
B19: Ac-F(pCN)-I-R-L-P-NH2 (peptide)
peptide: Ac-[Phe(4-CN)]IRLP-NH2
SMILES: CC[C@H](C)[C@H](NC(=O)[C@H](Cc1ccc(C#N)cc1)NC(C)=O)C(=O)N[C@@H](CCCNC(=N)N)C(=O)N[C@@H](CC(C)C)C(=O)N1CCC[C@H]1C(N)=O
B20: Ac-F(pCONH2)-I-R-L-P-NH2 (peptide)
peptide: Ac-[Phe(4-CONH2)]IRLP-NH2
SMILES: CC[C@H](C)[C@H](NC(=O)[C@H](Cc1ccc(C(N)=O)cc1)NC(C)=O)C(=O)N[C@@H](CCCNC(=N)N)C(=O)N[C@@H](CC(C)C)C(=O)N1CCC[C@H]1C(N)=O

Molecular target: human factor Xa (Enzyme Research Laboratories, Inc.) (human, UniProt P00742 41-179; P00742 235-488, limits assumed)
Sequence (P00742 41-179 limits assumed, chain 1 of 2): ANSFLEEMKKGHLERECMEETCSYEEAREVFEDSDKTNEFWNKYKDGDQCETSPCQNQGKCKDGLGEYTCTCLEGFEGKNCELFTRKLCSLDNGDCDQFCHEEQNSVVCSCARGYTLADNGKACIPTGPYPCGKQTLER
Sequence (P00742 235-488 limits assumed, chain 2 of 2): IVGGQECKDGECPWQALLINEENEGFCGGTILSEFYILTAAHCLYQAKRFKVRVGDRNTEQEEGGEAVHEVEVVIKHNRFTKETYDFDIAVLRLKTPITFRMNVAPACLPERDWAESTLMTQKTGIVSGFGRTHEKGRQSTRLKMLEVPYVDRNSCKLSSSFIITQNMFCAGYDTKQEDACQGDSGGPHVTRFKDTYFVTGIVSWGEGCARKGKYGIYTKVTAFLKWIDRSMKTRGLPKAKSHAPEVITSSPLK
Assay: chromogenic FXa inhibition
Protocol: TBS-P buffer (50 mM Tris-Cl, pH 7.8, 200 mM NaCl, 0.05% (w/v) PEG-8000, 0.02% (w/v) NaN_3) was used for this assay. The IC$50$ was determined by combining in appropriate wells of a Costar half-area microtiter plate 25 μl human factor Xa (Enzyme Research Laboratories, Inc.; South Bend Ind.) in TBS-P; 40 μl 10% (v/v) DMSO in TBS-P (uninhibited control) or various concentrations of a peptide to be tested diluted in 10% (v/v) DMSO in TBS-P; and substrate S-2765 (Nα-benzyloxycarbonyl-D-Arg-Gly-L-Arg-p-nitroanilide; Kabi Pharmacia, Inc.; Franklin Ohio) in TBS-P.
The assays were performed by pre-incubating the peptide inhibitor plus enzyme for 10 min, then the assay was initiated by adding substrate to obtain a final volume of 100 μl. The initial velocity of chromogenic substrate hydrolysis was measured by the change in absorbance at 405 nm using a Bio-tek Instruments kinetic plate reader (Ceres UV900HDi) at 25° C. during the linear portion of the time course (usually 1–5 min after addition of substrate). The concentration of inhibitor that caused a 50% decrease in the rate of substrate hydrolysis was predicted by linear regression after plotting the relative rates of hydrolysis (compared to the uninhibited control) versus the log of the peptide concentration. The enzyme concentration was 0.5 nM and substrate concentration was 140 μM.

Binder | Ki [µM]
Ac-YIRLP-NH2 [Ac-Y-I-R-L-P-NH2] | < 100
B1 | < 100
YIRIY-NH2 [Y-I-R-I-Y-NH2] | < 100
[dY]IRGP-NH2 (also: R3-G4 (COCH2) bond replaces peptide bond) [y-I-R(COCH2)-G-P-NH2] | < 100
B2 | < 100
Ac-[dY]IRLA [Ac-y-I-R-L-A] | < 100
YIRLA-NH2 [Y-I-R-L-A-NH2] | < 100
Ac-YIRIP [Ac-Y-I-R-I-P] | < 100
{N‑morpholinyl‑CO}-FIRLP-NH2 [N-morpholinyl-CO-F-I-R-L-P-NH2] | < 100
B3 | < 100
B4 | < 100
Ac-YNRLP-NH2 [Ac-Y-N-R-L-P-NH2] | < 100
Ac-YIRGP-NH2 (also: pseudo peptide bond ψ(COCH2) between R3 and G4) [Ac-Y-I-R-{ψ(COCH2)}-G-P-NH2] | < 100
B5 | < 100
B6 | < 100
YIRGA-NH2 [Y-I-R-G-A-NH2] | < 100
B7 | < 100
Ac-YIRLA (printed without -NH2) [Ac-Y-I-R-L-A] | < 100

Binder | Ki [µM]
B8 | < 100
B9 | < 100
Pth-YIRLP-NH2 (reading uncertain; also: printed as Pth-Y-I-R-L-P-NH2) [Pth-Y-I-R-L-P-NH2] | < 100
B10 | < 100
XIRLP (N-term Ac; N-(Me) on Y1; C-term NH2) [Ac-(Me)Y-I-R-L-P-NH2] | < 100
B11 | < 100
B12 | < 100
B13 | < 100
B14 | < 100
B15 | < 100
B16 | < 100
Ac-EYIRLPK-NH2 (also: cyclisation unknown (underlining lost), may be cyclic; underlining lost) [Ac-E-Y-I-R-L-P-K-NH2] | < 100
XIRLP (N-term Ac; N-(trans-CH3-CH═C(CH3)-CH2) on Y1; C-term NH2) [Ac-(trans-CH3-CH═C(CH3)-CH2)Y-I-R-L-P-NH2] | < 100
B17 | < 100
B18 | < 100
XIRLP (N-term Ac; Y1=Tyr(3,5-NO2); C-term NH2) [Ac-Tyr(3,5-NO2)-I-R-L-P-NH2] | < 100
B19 | < 100
B20 | < 100
